Data on 41 molecules can be found in US20080039402A1 (UNIVERSITE BORDEAUX 2, published 2008).

Experiment [1] concerns the target T1, CD23 (FCεRII) on human CD23+ cells (human, UniProt P06734 1-321).
T1 sequence (looked up): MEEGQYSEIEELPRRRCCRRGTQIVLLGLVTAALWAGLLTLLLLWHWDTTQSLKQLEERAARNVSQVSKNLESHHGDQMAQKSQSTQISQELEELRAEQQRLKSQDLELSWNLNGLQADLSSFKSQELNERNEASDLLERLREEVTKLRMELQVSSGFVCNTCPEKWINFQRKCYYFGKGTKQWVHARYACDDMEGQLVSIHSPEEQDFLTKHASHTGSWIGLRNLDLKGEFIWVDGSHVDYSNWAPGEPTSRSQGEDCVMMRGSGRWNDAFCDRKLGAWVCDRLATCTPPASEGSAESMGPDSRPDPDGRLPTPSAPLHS
As to the kind of experiment: cell-based or functional assay.

The target of experiment [2] is T1, CD23 (FCεRII) on human CD23+ cells. As to the kind of experiment: cytofluorometry; CD23+ cells pre-incubated with peptide, then IgE/anti-IgE-FITC; Experiment 2.
For experiment [3] the target is unchanged. As to the kind of experiment: cytofluorometry; CD23+ cells pre-incubated with peptide, then CD23-Ab; Experiment 2.
The target is the same in experiment [4]. As to the kind of experiment: cytofluorometry; CD23+ cells pre-incubated with peptide, then CD23-Ab; Experiment 3.
Experiment [5] has the same target. As to the kind of experiment: cytofluorometry; CD23+ cells pre-incubated with peptide, then CD23-Ab; Experiment 1.
Experiment [6] shares this target. As to the kind of experiment: cytofluorometry; CD23+ cells pre-incubated with peptide, then IgE/anti-IgE-FITC; Experiment 1.
Experiment [7] shares this target. As to the kind of experiment: inhibition of anti-CD23-FITC mAb binding to CD23+ cells; Activity grade.

Positions of bridges follow the written chain, without caps; N, C: chain ends. Non-standard residues stand in square brackets, D forms with d. No end group written: not given here. βAla = NCCC(=O)O; Sar = CNCC(=O)O

Consider Compound 411 (Ac N W CO2H) (peptide), for which, in experiment [1], the % Inhibition (nitrites; inhibition of iNOS production by activated CD23+ macrophages) came to 84%.

For unrelated control peptide (pNu), the % of fluorescence intensity recovered, compared to cells incubated in medium alone came out at 110% in experiment [2]; 88% in experiment [3]; 94% in experiment [4]; 120% in experiment [5]; 73% in experiment [6]. Besides, the TNF-α in supernatant of CD23+ cells, pNu + CD23-Ab, Experiment 1 in experiment [1] was found to be 162 pg TNF-α/ml. Further, the TNF-α in supernatant of CD23+ cells, pNu + CD23-Ab, Experiment 2 in experiment [1] stood at 132 pg TNF-α/ml. Moreover, the [NO2-], macrophages from synovial fluid of Rheumatoid Arthritis patients, pNu + CD23-Ab, Experiment 1 in experiment [1] turned out to be 15.2 µM. Besides, the [NO2-], macrophages from synovial fluid of Rheumatoid Arthritis patients, pNu + CD23-Ab, Experiment 2 in experiment [1] is 14.4 µM.

Consider Compound 492 (Ac n w CO2H) (peptide), for which the % Inhibition (nitrites; inhibition of iNOS production by activated CD23+ macrophages) in experiment [1] turned out to be 77%.

In experiment [1], “Compound 410 (Ac N W BetaA CO2H) (peptide)” yielded a % Inhibition (nitrites; inhibition of iNOS production by activated CD23+ macrophages) of 61%.

As to Compound 491 (Ac w n CO2H) (peptide), the % Inhibition (nitrites; inhibition of iNOS production by activated CD23+ macrophages) in experiment [1] came to 94%.

Regarding “Compound 489 (NH2 G[allyl-] N W G[allyl-]) (peptide)”, in experiment [1], the % Inhibition (nitrites; inhibition of iNOS production by activated CD23+ macrophages) amounted to 62%.

As for “Compound 490 (G[allyl-] N W G[allyl-] S) (peptide)”, in experiment [1], the % Inhibition (nitrites; inhibition of iNOS production by activated CD23+ macrophages) turned out to be 81%.

For the molecule Ac-HENWPS-NH2 [Compound 243], the binding result in experiment [7] was “binds”.

For the molecule HENAPS [Compound 436], the “% Inhibition (nitrites; inhibition of iNOS production by activated CD23+ macrophages)” value (“% Inhibition” for short) in experiment [1] is 60%.

Regarding HENWES (lactam N-5) [Compound 327], the “% Inhibition” value in experiment [1] was found to be 60%.

As for HENWKS [Compound 333], the “% Inhibition” value in experiment [1] stood at 69%.

In the case of HQNWPS-NH2 [Compound 400], the binding result in experiment [7] is listed as “binds”.

With RENWPS [Compound 384], the binding result in experiment [7] was “binds”.

Turning to HEQWPS [Compound 364], the binding result in experiment [7] is on record as “binds”.

For HENWGS (cyclic H2T (N-terminus amino group to C-terminus carboxyl group linkage)) [Compound 299], the “% Inhibition” value in experiment [1] amounted to 74%.

In the case of F[βAla]ENWPS [Compound 339], the binding result in experiment [7] is “binds”.

For the molecule FHENWP [P30L (F H E N W P)], the “% Inhibition” value in experiment [1] was 78%.

B1: Compound 290 (peptide)
peptide: HCNWCS
notes: Cys at residues 2 and 5; no disulfide is stated for this compound
As to B1, in experiment [7], the binding result was “binds”.

As for HENWPSG (cyclic H2T (N-terminus amino group to C-terminus carboxyl group linkage)) [Compound 298], the binding result in experiment [7] is recorded as “binds”.

Turning to FHEQWPS [P30O (F H E Q W P S)], the “% Inhibition” value in experiment [1] was 73%.

Turning to HENWPS [P30K (H E N W P S)], in experiment [1], the “% Inhibition” value worked out at 74%.

Consider FHENW[βAla]S [Compound 328], for which the “% Inhibition” value in experiment [1] stood at 26%.

For the molecule HENWP-NH2 [Compound 249], the binding result in experiment [7] is listed as “binds”.

Turning to HENWS (cyclic H2T (N-terminus amino group to C-terminus carboxyl group linkage)) [Compound 437], the “% Inhibition” value in experiment [1] is 56%.

B2: Compound 397 (scrambled) (peptide)
peptide: SPWNEHF
notes: Comment 'scrambled'; L-amino acids, reverse order of FHENWPS
With B2, in experiment [7], the binding result was “binds”.

Regarding FHENWPT [P30M (F H E N W P T)], in experiment [1], the “% Inhibition” value is 76%.

For the molecule HPNWRS [Compound 281], the binding result in experiment [7] was “binds”.

HNEWPS [Compound 288]: the binding result in experiment [7] is “binds”.

HENWPS-NH2 [Compound 244]: the binding result in experiment [7] was “binds”.

Take FHKPWRA [P30G (F H K P W R A)]: the “% Inhibition” value in experiment [1] amounted to 55%.

For FHEFWPT [FHEFWPT (p30D)], the “% Inhibition” value in experiment [1] amounted to 68%.

For the molecule FHENWAS [Compound 316], the binding result in experiment [7] was “binds”.

Turning to FHENWPA [Compound 349], the binding result in experiment [7] is “binds”.

Turning to FHEAWPS [Compound 331], in experiment [1], the “% Inhibition” value amounted to 43%.

Turning to FAENWPS [Compound 338], the binding result in experiment [7] is listed as “binds”.

Regarding FHANWPS [Compound 337], the binding result in experiment [7] was “binds”.

On to FHSQWPN [FHSQWPN (p30E)], for which the “% Inhibition” value in experiment [1] was 65%.

Regarding FH[βAla]NWPS [Compound 340], the binding result in experiment [7] is recorded as “binds”.

For the molecule FHENWPS [FHENWPS peptide (p30A)], the “% Inhibition” value in experiment [1] was 74%.

On to HEPWRS [Compound 289], for which the binding result in experiment [7] is “binds”.

B3: Compound 398 (peptide)
peptide: cyclo(HENW[Sar]S)
SMILES: CN1CC(=O)N[C@@H](CO)C(=O)N[C@@H](Cc2c[nH]cn2)C(=O)N[C@@H](CCC(=O)O)C(=O)N[C@@H](CC(N)=O)C(=O)N[C@@H](Cc2c[nH]c3ccccc23)C1=O
Turning to B3, in experiment [1], the “% Inhibition” value was determined as 74%.
